# From the Human Domainome abundance scans (Beltran et al. 2025)
# ± gives the uncertainty stated by the source.
# Assay: abundance fitness (aPCA) (normalised: wild type 0, dead -1); higher = more abundant; growth selection in yeast, the domain comes from the species named
# Details: Homo sapiens
row,Substance,abundance fitness
1,"Lipoamide acyltransferase component of branched-chain alpha-keto acid dehydrogenase complex, mitochondrial N207C, P11182",-0.302 ± 0.1
2,"Lipoamide acyltransferase component of branched-chain alpha-keto acid dehydrogenase complex, mitochondrial N207D, P11182",-0.009 ± 0.049
3,"Lipoamide acyltransferase component of branched-chain alpha-keto acid dehydrogenase complex, mitochondrial N207E, P11182",-0.043 ± 0.047
4,"Lipoamide acyltransferase component of branched-chain alpha-keto acid dehydrogenase complex, mitochondrial N207F, P11182",-0.339 ± 0.091
5,"Lipoamide acyltransferase component of branched-chain alpha-keto acid dehydrogenase complex, mitochondrial N207G, P11182",-0.03 ± 0.042
6,"Lipoamide acyltransferase component of branched-chain alpha-keto acid dehydrogenase complex, mitochondrial N207I, P11182",-0.261 ± 0.14
7,"Lipoamide acyltransferase component of branched-chain alpha-keto acid dehydrogenase complex, mitochondrial N207L, P11182",-0.048 ± 0.048
8,"Lipoamide acyltransferase component of branched-chain alpha-keto acid dehydrogenase complex, mitochondrial N207P, P11182",-0.199 ± 0.051
9,"Lipoamide acyltransferase component of branched-chain alpha-keto acid dehydrogenase complex, mitochondrial N207Q, P11182",0.035 ± 0.066
10,"Lipoamide acyltransferase component of branched-chain alpha-keto acid dehydrogenase complex, mitochondrial N207S, P11182",-0.017 ± 0.044
11,"Lipoamide acyltransferase component of branched-chain alpha-keto acid dehydrogenase complex, mitochondrial N207V, P11182",-0.11 ± 0.042
12,"Lipoamide acyltransferase component of branched-chain alpha-keto acid dehydrogenase complex, mitochondrial N207W, P11182",-0.183 ± 0.041
13,"Lipoamide acyltransferase component of branched-chain alpha-keto acid dehydrogenase complex, mitochondrial N207Y, P11182",-0.453 ± 0.23
14,"Lipoamide acyltransferase component of branched-chain alpha-keto acid dehydrogenase complex, mitochondrial P175A, P11182",0.023 ± 0.044
15,"Lipoamide acyltransferase component of branched-chain alpha-keto acid dehydrogenase complex, mitochondrial P175C, P11182",-0.151 ± 0.062
16,"Lipoamide acyltransferase component of branched-chain alpha-keto acid dehydrogenase complex, mitochondrial P175D, P11182",0.038 ± 0.048
17,"Lipoamide acyltransferase component of branched-chain alpha-keto acid dehydrogenase complex, mitochondrial P175E, P11182",0.037 ± 0.047
18,"Lipoamide acyltransferase component of branched-chain alpha-keto acid dehydrogenase complex, mitochondrial P175F, P11182",-0.098 ± 0.064

row,Substance,abundance fitness
1,"Lipoamide acyltransferase component of branched-chain alpha-keto acid dehydrogenase complex, mitochondrial P175G, P11182",-0.268 ± 0.035
2,"Lipoamide acyltransferase component of branched-chain alpha-keto acid dehydrogenase complex, mitochondrial P175I, P11182",-0.133 ± 0.065
3,"Lipoamide acyltransferase component of branched-chain alpha-keto acid dehydrogenase complex, mitochondrial P175K, P11182",0.024 ± 0.042
4,"Lipoamide acyltransferase component of branched-chain alpha-keto acid dehydrogenase complex, mitochondrial P175L, P11182",-0.119 ± 0.056
5,"Lipoamide acyltransferase component of branched-chain alpha-keto acid dehydrogenase complex, mitochondrial P175M, P11182",-0.051 ± 0.081
6,"Lipoamide acyltransferase component of branched-chain alpha-keto acid dehydrogenase complex, mitochondrial P175N, P11182",-0.096 ± 0.053
7,"Lipoamide acyltransferase component of branched-chain alpha-keto acid dehydrogenase complex, mitochondrial P175Q, P11182",-0.008 ± 0.048
8,"Lipoamide acyltransferase component of branched-chain alpha-keto acid dehydrogenase complex, mitochondrial P175R, P11182",-0.16 ± 0.041
9,"Lipoamide acyltransferase component of branched-chain alpha-keto acid dehydrogenase complex, mitochondrial P175S, P11182",-0.127 ± 0.044
10,"Lipoamide acyltransferase component of branched-chain alpha-keto acid dehydrogenase complex, mitochondrial P175T, P11182",-0.016 ± 0.052
11,"Lipoamide acyltransferase component of branched-chain alpha-keto acid dehydrogenase complex, mitochondrial P175V, P11182",-0.029 ± 0.043
12,"Lipoamide acyltransferase component of branched-chain alpha-keto acid dehydrogenase complex, mitochondrial P175W, P11182",-0.136 ± 0.042
13,"Lipoamide acyltransferase component of branched-chain alpha-keto acid dehydrogenase complex, mitochondrial P175Y, P11182",-0.24 ± 0.066
14,"Lipoamide acyltransferase component of branched-chain alpha-keto acid dehydrogenase complex, mitochondrial Q212A, P11182",0.006 ± 0.036
15,"Lipoamide acyltransferase component of branched-chain alpha-keto acid dehydrogenase complex, mitochondrial Q212C, P11182",-0.047 ± 0.052
16,"Lipoamide acyltransferase component of branched-chain alpha-keto acid dehydrogenase complex, mitochondrial Q212D, P11182",-0.009 ± 0.13
17,"Lipoamide acyltransferase component of branched-chain alpha-keto acid dehydrogenase complex, mitochondrial Q212E, P11182",0.02 ± 0.043
